Experimental data from publication PMC4591687.

Target: PDI C56A-FLAG (human) (UniProt P07237)
Experiment: co-IP

Sequence of UniProt P07237 (P07237 18-508 C56A): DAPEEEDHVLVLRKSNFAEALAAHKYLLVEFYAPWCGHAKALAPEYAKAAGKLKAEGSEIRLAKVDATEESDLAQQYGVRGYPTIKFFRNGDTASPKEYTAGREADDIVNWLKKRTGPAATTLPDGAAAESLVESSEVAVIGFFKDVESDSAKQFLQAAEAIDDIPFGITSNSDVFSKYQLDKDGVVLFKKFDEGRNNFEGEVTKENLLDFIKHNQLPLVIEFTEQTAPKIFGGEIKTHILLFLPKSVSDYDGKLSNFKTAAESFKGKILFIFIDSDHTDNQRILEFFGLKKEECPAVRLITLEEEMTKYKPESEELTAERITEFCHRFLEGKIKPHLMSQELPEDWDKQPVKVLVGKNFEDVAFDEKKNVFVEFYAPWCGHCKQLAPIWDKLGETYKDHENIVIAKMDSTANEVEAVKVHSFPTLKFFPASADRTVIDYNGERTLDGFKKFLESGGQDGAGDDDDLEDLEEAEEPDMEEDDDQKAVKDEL

stoichiometry N (proinsulin per PDI): 1
Substance: Myc-epitope-tagged human C(A7)Y Akita mutant proinsulin (natural protein)
